US8852954

Biological target: mouse IgG1 (subtype 1 IgG antibody) (Mus musculus) (UniProt P01868)
Assay: SPR
Settings: RNA with 5'-dA5 (1-5)

AAAAAGCGCUGAAGAGAAGACGGAAGGAGACGAAGCGC [MIG-m040]
Kd (2'-OMe U10, BIACORE 3000, 1:1 Langmuir): 0.411 nM

AAAAACGCUGAAGAGAAGACGGAAGGAGACGAAGCGT [MIG-m034]
Kd (LNA at C6 G7 C35 G36, 3'-dT37, BIACORE 3000, 1:1 Langmuir): < 0.001 nM
Kd (LNA at C6 G7 C35 G36, 3'-dT37, second measurement (Example 3), differs from Table 2): 0.634 nM

AAAAAGCGCUGAAGAGAAGACGGAAGGAGACGAAGCGC [MIG-m037]
Kd (DNA at 6-9 and 35-38, BIACORE 3000, 1:1 Langmuir): 1.7 nM

AAAAAGCGCUGAAGAGAAGACGGAAGGAGACGAAGCGC [MIG-m036]
Kd (DNA at G6 C7 G37 C38, BIACORE 3000, 1:1 Langmuir): 5.48 nM

AAAAAGCGCUGAAGAGAAGACGGAAGGAGACGAAGCGC [MIG-m041]
Kd (DNA at 6-9 and 35-38, 2'-OMe U10, BIACORE 3000, 1:1 Langmuir): < 0.001 nM

AAAAAGCUGAAGAGAAGACGGAAGGAGACGAAGCT [MIG-m035]
Kd (LNA at G6 C7 G33 C34, 3'-dT35, BIACORE 3000, 1:1 Langmuir): < 0.001 nM

AAAAACGCUGAAGAGAAGACGGAAGGAGACGAAGCGT [MIG-m042]
Kd (LNA at C6 G7 C35 G36, 2'-OMe U9, 3'-dT37, BIACORE 3000, 1:1 Langmuir): < 0.001 nM
